# Test results published in patent US20170087188A1, “WNT INDUCED MOTILITY AND ENHANCED ENGRAFTMENT OF CELLS” (OTTAWA HOSPITAL RESEARCH INSTITUTE, priority 2014, published 2017).
# Where “and” joins values, the source holds several entries; their conditions need not be identical. Equal entries are not always repeated. Entries after “also recorded” stand apart in the source; their conditions may differ.
# B1: Wnt7a: non-canonical Wnt polypeptide (R&D Systems) used to treat or load myogenic cells (protein, UniProt O00755 32-349, looked up)
# Protein Wnt-7a: LGASIICNKIPGLAPRQRAICQSRPDAIIVIGEGSQMGLDECQFQFRNGRWNCSALGERTVFGKELKVGSREAAFTYAIIAAGVAHAITAACTQGNLSDCGCDKEKQGQYHRDEGWKWGGCSADIRYGIGFAKVFVDAREIKQNARTLMNLHNNEAGRKILEENMKLECKCHGVSGSCTTKTCWTTLPQFRELGYVLKDKYNEAVHVEPVRASRNKRPTFLKIKKPLSYRKPMDTDLVYIEKSPNYCEEDPVTGSVGTQGRACNKTAPQASGCDLMCCGRGYNTHQYARVWQCNCKFHWCCYVKCNTCSERTEMYTCK
# Key:
# C2C12 cells = assay: Scratch migration assay, C2C12 cells; assay type: cell-based; conditions: Mitomycin-C treated, 24 h, Wnt 100 ng/mL, vs Veh. or empty vector
# Procedure: (§1) Cellular polarization is indicative of increased motility (de Forges et al., 2012). Scratch assays were used to test whether Wnt7a and Fzd7 polarization affect cell motility. To exclude effects on the localization of cells arising from altered rates of proliferation, cells were treated with Mitomycin-C.
# (§2) Following plasmid transfection or application of Wnts (R&D Systems), the cells were treated with Mitomycin-C for 2 h (50 μg/mL). Subsequently, the monolayer of cells was scraped in a straight line. The plates were then extensively washed with culture medium and incubated for 24 h before analysis. Analysis was performed using DAPI staining after matching the reference points and enumeration of DAPI-stained nuclei in the scar was performed. Unless otherwise indicated, Wnt7a and Wnt3a were used at a concentration of 100 ng/mL in scratch assays. Monodansylcadaverine (MDC, 30432, Sigma) was used in scratch assays at a concentration of 50 μm.
# Fzd7 = assay: Subcellular distribution of Fzd7-YFP in primary myoblasts; assay type: cell-based; conditions: Wnt7a stimulated vs controls
# Procedure: The effect of Wnt7a treatment on the subcellular distribution of Fzd7 was tested. […] Furthermore, it was observed that myoblasts exposed to conditioned medium containing HA epitope tagged Wnt7a (Wnt7a-HA) quickly endocytosed this factor. After 3 h of incubation and several subsequent washing steps, endocytosed Wnt7a-HA was detectable for ≧72 h in intracellular structures in primary myoblasts (FIG. 4E) and C2C12 cells (FIG. 11E).
# human primary myoblasts = assay: Scratch migration assay, human primary myoblasts; assay type: cell-based
# Procedure: The translational relevance of Wnt7a treatment was examined in human primary myoblasts.
# as §2
# primary myoblasts = assay: Proliferation of primary myoblasts over five days; assay type: cell-based; conditions: 3 h exposure; various concentrations; over 5 days
# Procedure: The proliferation of primary myoblasts following a 3 h exposure to various concentrations of Wnt7a was analyzed to control for the effect being due to changes in the cell cycle status of the transplanted cells.
# [1] = system: mdx extensor digitorum longus (EDL) muscles; assay: Muscle force measurement of mdx EDL muscles after satellite cell transplantation; assay type: in vivo, mouse; conditions: 3,000 satellite cells treated ex vivo, compared to Veh.
# Text: Under normal conditions, a portion of transplanted satellite cells will differentiate and fuse to muscle myofibers. In mdx mice, this process can be tracked by staining for restored dystrophin expression in muscle fibers. […] Similar to the stimulatory effect of Wnt7a on myogenic cell migration in vitro, clusters of dystrophin-expressing myofibers in muscles that were transplanted with Wnt7a-treated cells were highly dispersed and on average located maximally 3.7 mm apart. By contrast, transplantation of untreated cells gave rise to clusters of dystrophin-expressing myofibers that were on maximally 2.2 mm apart on average (FIGS. 6F and 6G).
# Extensor digitorum longus (EDL) muscles were isolated three weeks following transplantation and attached to an electrode and a force sensor (Aurora Scientific), and incubated at 25° C. in buffered physiological saline (Krebs-Ringer) supplemented with glucose and oxygen. Twitch force was determined following a single electrical stimulus, while maximal force was generated by electrical stimulation at 100 Hz for 500 ms. Thereafter, muscle length and weight were measured and specific muscle force was calculated ((maximal force×optimal fiber length×muscle density)/muscle mass).
# mdx mice [2] = assay: Transplantation of Wnt-treated mouse primary myoblasts into mdx mice; assay type: in vivo; conditions: 100,000 mouse primary myoblasts
# Procedure: In a clinical setting, freshly isolated satellite cells are often not readily available. Therefore, the effect of 3 h Wnt7a loading on cultured primary mouse myoblasts that were subsequently transplanted into injured muscles of immunosuppressed mdx mice (FIG. S5 A) was examined. After transplantation of 100,000 cells, the number of dystrophin-expressing myofibers was increased by 72% in muscles that were injected with Wnt7a treated myoblasts (FIG. 13B). […] In addition, the mean maximal cluster distance (dispersion) increased from 1.5 mm for Veh., to 2.0 mm for Wnt7a (FIG. 13D).
# (§3) Transplantation of zsGreen-expressing satellite cells or myoblasts into mdx mice was performed as previously described (Bentzinger et al., 2013c). Before transplantation the cells were treated for 3 h with Wnt7a, Wnt5a, or Wnt3a (R&D Systems) at a concentration of 50 ng/mL for freshly isolated satellite cells or with 100 ng/mL for cultured cells. Myoblasts expressing tdTomato were transplanted into uninjured muscles of C57BL/6 mice that were implanted with an osmotic pump (Alzet) delivering FK506 (Sigma) at 2.5 mg/kg/day 3 days prior to the transplantations. In some experiments, the injection site was marked with blue fluorescent microspheres (2 μm, Life Technologies) that were added at a concentration of 1:100 (vol/vol) to the cell suspension. 10 μl of the cell-microsphere suspension was injected into the TA of each mouse using a Hamilton syringe.
# Muscles frozen in liquid nitrogen were cut into 12 μm cross-sections. Cross-sections and cells were either fixed with ethanol (100%) or 2% PFA for 5 min, permeabilized with 0.1% Triton/0.1 M glycine/PBS for 10 min, blocked with 5% horse serum in PBS for several hours, and incubated with specific primary antibody in blocking buffer overnight at 4° C. Samples were subsequently washed with PBS and stained with appropriate fluorescently labeled secondary antibodies for 1 h at room temperature. After washing with PBS, samples were mounted with Permafluor (Fisher). Antibodies were as follows: chicken anti-GFP (Abcam, ab13970), mouse anti-Pax7 (DSHB), mouse anti-Dystrophin (7A10, DSHB), mouse anti-Rac1 (05-389, Millipore), mouse anti-Tubulin (Sigma, T9026), rabbit anti-Dvl2 (3224, Cell Signaling), rabbit anti-zsGreen (Clontech, 632474), rabbit anti-Laminin (Sigma, L9393), rabbit anti-HA (Millipore, 07-221).
# mouse primary myoblasts = assay: Scratch migration assay, mouse primary myoblasts; assay type: cell-based
# Procedure: as §1
# Fzd7 deficient cells migrated 59% less compared to heterozygous myoblasts and expression of Fzd7-Flag in Fzd7 knockout myoblasts restored migration to normal levels (FIG. 2D). […] To investigate whether the stimulation of myoblast migration is dose dependent, different concentrations of Wnt7a and Wnt3a were tested for their effect on migration.
# as §2
# mdx mice [3] = assay: Transplantation of Wnt7a-treated human primary myoblasts into mdx mice; assay type: in vivo, mouse
# Procedure: The effectiveness of Wnt7a on human myoblasts, in vivo, was tested using the same experimental paradigm that we previously used for mouse myoblasts (FIG. 7C). 100,000 human myoblasts were treated ex vivo with Wnt7a for 3 h, and transplanted into immunosuppressed mdx mice. […] (FIG. 7D). […] Moreover, the mean maximal distance between dystrophin-expressing myofiber clusters increased from 1.8 mm under the Veh. condition to 3.0 mm for Wnt7a treatment (FIG. 7F).
# as §3
molecule,measurement,setting,value
B1,increase in cell migration,C2C12 cells,443%
same,subcellular distribution of Fzd7-YFP,Fzd7,decreases the abundance of peripheral Fzd7-YFP; also recorded: higher abundance of large intracellular aggregates and reduced peripheral Fzd7-YFP
same,human myoblast migration,human primary myoblasts,significantly increases cell migration; also recorded: significantly increased human myoblast migration
same,rate of proliferation of primary myoblasts,primary myoblasts,No change in the rate of proliferation
same,increase in maximal specific force generation,[1],18%
same,increase in twitch tension,[1],30%
same,increase in number of dystrophin-expressing myofibers,"mdx mice [2]; 3 h loading (100 ng/mL), immunosuppressed mdx mice",72%
same,hypertrophy of dystrophin-expressing myofibers,"mdx mice [2]; 3 h loading, mdx mice",87%
same,mean maximal cluster distance (dispersion),"mdx mice [2]; 3 h loading, mdx mice",2.0 mm
same,dose dependency of myoblast migration,"mouse primary myoblasts; different concentrations tested, mouse primary myoblasts",relatively linear increases in cell migration
same,response of cell migration to Wnt7a in Fzd7 knockout myoblasts,mouse primary myoblasts; primary myoblasts from Fzd7−/− mice,do not respond; also recorded: no reaction
same,increase in cell migration,"mouse primary myoblasts; satellite cell derived mouse primary myoblasts, Wnt 100 ng/mL, vs Veh. or empty vector",136%
same,increase in the number of dystrophin-expressing myofibers,"mdx mice [3]; 100,000 human myoblasts treated ex vivo 3 h, immunosuppressed mdx mice, compared to Veh.",226% and > 200%
same,mean maximal distance between dystrophin-expressing myofiber clusters,"mdx mice [3]; human myoblasts treated ex vivo 3 h, mdx mice",3.0 mm
same,increase in fiber feret,"mdx mice [3]; myofibers fused to Wnt7a-treated human myoblasts, mdx mice",29%
